Assay [1] deals with human CD127 on human blood T cells (human) (UniProt P16871). In words: flow cytometry on CD3+ cells of three human donors.
The target of assay [2] is CD127-Fc (Sino Biological) (UniProt P16871). In words: SPR (Biacore), single cycle kinetics, CD127-Fc immobilised on CM5 chip, bivalent model. (In general: SPR reads the build-up and loss of mass on a sensor chip optically.)
The target of assay [3] is T1, CD127-Fc (Sino Biological) (UniProt P16871 21-239, limits assumed).
T1 construct: whole entry named; Immobilised by amine coupling on a CM5 chip; also called CD127 protein; not shown: Fc part of the bought fusion; not described
T1 sequence (looked up): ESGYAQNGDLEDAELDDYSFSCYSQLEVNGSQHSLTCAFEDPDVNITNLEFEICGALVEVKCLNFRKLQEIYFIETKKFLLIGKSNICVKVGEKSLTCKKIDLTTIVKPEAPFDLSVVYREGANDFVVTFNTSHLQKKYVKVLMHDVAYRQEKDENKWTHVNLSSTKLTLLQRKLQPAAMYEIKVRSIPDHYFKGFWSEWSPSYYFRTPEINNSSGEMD
Described as above. The protocol:
CD127-Fc was immobilized by amine coupling on a CM5 chip. The carboxylic groups were esterified by injection of an NHS/EDC mix for 7 min. The CD127-Fc proteins diluted to 20 μg/ml in Na acetate buffer pH 4.6 were injected until an SPR signal of 500 RU was obtained. Free reactive sites were inactivated by injection of 1 M ethanolamine pH8.5 for 10 min.
Antibodies were analyzed in Single Cycle Kinetics (SCK) on CD127 to determine kinetic and affinity parameters. The surface functionalized with CD127-Fc was regenerated between each cycle by injection of a 4 M MgCl 2 solution for 30 seconds.

In the case of “eBIORDR5 (CD127 Monoclonal Antibody, eBioscience from Invitrogen/Thermo Fisher Scientific catalog # 14-1278-82)”, the mean fluorescence intensity in assay [1] turned out to be 4140 MFI. In addition, the Kd in assay [2] was 0.0683 nM.

B1: Effi3-VH3VL3 (antibody, V domains shown)
VH: AVQLVESGGGLVQPGGSLKITCAASGFTFTNAAMYWVRQAPGKGLEWVARIRTKANNYATYYADSVKGRFTISRDDSKSTVYLQMDSVKTEDTATYYCIVVVLTTTRDYFDYWGQGVLVTVSS
VL: DIVLTQSPSSLPVTPGEPASISCRSSQSLLTVKGITSLYWFLQKPGQSPKLLIYRMSNRDSGVPDRFSGSGSETDFTLKISRVEAEDVGTYYCAQFLEYPHTFGAGTKLELKR
notes: also called Effi3-VH3L3; Effi3 clone VH3VL3
Regarding B1, the Kd in assay [3] stood at 1.62 nM.

For the origin of these results see patent US20200362300A1 (OSE IMMUNOTHERAPEUTICS, published 2020).
